In PMC9459030 (Journal of Ginseng Research, 2021) one finds Kd, koff and kon data, which are given here for one molecule.

For the experiment, the target named is T1, 14-3-3 ζ protein (UniProt P63104 1-245).
T1 sequence (looked up): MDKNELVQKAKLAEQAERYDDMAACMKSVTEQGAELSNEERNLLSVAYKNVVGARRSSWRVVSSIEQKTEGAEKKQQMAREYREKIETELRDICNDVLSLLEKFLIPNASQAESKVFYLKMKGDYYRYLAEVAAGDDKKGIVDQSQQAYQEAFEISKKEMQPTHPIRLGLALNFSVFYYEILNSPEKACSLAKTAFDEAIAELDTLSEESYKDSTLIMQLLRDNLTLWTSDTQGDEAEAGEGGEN
In words: BLI. Background: Biolayer interferometry detects binding as a change in optical thickness at a sensor tip.

Where no end group is shown, it is not given here. [ ]: non-standard residue; d: D form. pS = N[C@@H](COP(=O)(O)O)C(=O)O

Consider GRPRTT[pS]FAE [p-Ser9 GSK 3β polypeptide (Gly3-pSer9-Glu12)], for which the Kd worked out at 46.8 µM, the koff came out at 0.0185 s⁻¹ and the kon came out at 579 M⁻¹ s⁻¹.

The term Kd denotes the equilibrium constant for the complex coming apart. As a reminder, the koff is the first-order rate constant of dissociation. High values mean a short-lived complex, low ones a long-lived complex. In general, kon refers to the second-order rate constant of association.
